Biological target: T1, human factor VIII (human, UniProt P00451 20-2351)
T1 construct: also called FVIII
Test: Surface Plasmon Resonance

T1 sequence (P00451 20-2351 limits assumed): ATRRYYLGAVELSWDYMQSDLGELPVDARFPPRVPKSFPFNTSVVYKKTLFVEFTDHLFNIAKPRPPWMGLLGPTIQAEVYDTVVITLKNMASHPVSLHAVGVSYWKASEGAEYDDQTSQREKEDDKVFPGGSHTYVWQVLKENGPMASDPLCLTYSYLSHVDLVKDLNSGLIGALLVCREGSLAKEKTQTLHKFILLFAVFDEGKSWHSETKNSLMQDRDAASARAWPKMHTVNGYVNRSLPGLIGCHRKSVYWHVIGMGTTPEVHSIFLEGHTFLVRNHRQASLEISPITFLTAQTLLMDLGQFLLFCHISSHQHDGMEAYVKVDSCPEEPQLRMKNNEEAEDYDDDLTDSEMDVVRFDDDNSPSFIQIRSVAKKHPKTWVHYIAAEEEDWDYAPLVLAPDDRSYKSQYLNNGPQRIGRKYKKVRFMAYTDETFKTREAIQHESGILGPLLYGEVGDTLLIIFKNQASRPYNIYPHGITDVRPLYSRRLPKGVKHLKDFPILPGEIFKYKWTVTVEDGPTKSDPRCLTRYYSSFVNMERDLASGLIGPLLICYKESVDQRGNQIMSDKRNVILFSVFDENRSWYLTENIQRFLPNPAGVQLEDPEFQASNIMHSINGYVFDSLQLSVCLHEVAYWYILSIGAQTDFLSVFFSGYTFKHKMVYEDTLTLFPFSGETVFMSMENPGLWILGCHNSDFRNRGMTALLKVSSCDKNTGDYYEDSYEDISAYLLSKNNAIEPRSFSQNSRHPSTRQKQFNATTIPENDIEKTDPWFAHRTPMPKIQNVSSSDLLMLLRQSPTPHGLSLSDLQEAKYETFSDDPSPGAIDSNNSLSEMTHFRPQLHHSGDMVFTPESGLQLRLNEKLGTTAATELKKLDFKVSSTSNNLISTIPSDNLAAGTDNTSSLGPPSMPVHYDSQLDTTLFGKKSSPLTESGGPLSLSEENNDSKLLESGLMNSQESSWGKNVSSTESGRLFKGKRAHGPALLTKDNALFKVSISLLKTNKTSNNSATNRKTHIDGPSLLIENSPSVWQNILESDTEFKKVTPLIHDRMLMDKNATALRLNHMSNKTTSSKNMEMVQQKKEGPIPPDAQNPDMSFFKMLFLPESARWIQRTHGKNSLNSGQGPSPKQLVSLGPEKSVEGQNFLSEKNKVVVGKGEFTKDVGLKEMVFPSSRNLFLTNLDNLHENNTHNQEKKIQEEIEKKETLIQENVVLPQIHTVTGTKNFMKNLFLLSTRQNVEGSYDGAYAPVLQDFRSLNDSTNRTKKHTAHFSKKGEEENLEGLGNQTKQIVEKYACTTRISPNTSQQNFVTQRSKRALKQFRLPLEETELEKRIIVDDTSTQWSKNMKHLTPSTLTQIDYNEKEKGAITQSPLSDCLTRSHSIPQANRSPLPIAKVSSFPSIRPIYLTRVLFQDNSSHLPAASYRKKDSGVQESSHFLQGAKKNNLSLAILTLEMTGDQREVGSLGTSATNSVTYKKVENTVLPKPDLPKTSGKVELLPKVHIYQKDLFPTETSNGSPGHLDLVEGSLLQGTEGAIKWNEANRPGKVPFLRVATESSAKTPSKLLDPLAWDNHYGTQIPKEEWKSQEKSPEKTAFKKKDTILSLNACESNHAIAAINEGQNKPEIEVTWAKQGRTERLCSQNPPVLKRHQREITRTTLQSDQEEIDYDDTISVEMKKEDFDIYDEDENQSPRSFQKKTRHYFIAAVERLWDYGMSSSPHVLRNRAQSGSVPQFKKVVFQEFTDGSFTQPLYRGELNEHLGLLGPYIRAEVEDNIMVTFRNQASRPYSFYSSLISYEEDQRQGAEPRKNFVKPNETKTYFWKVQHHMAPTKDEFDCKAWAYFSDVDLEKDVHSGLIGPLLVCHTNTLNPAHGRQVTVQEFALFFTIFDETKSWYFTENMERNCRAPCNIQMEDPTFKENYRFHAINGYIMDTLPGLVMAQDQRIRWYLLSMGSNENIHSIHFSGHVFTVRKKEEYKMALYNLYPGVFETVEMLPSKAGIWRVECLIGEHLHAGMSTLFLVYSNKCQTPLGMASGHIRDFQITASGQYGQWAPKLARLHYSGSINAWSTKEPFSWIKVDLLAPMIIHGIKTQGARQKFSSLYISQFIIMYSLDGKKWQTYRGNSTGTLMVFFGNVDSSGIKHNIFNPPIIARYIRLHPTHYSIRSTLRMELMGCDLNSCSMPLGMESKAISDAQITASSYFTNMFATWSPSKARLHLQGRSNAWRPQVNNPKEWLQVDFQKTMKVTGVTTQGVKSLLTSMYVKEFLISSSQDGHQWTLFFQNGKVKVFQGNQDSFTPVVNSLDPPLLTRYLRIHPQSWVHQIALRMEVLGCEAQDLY

koff: ≤ 1e-05 s⁻¹
B1: human monoclonal antibody BO2C11 (antibody, V domains shown)
VH: QVQLVQSGAEVKKPGASVKVSCKVSGYTLTELPVHWVRQAPGKGLEWVGSFDPESGESIYAREFQGSVTMTADTSTDIAYMELSSLRSDDTAVYYCAVPDPDAFDIWGQGTMVTVSS
VL: EIALTQSPGTLSLSPGERATLSCRASQSFSSSYLAWYQQKPGQAPRLLIYGASTRATGIPDRFSGSGSGTDFTLTISRLEPEDFAVYYCQKYGTSAITFGQGTRLEIK
notes: also called B02C11

Source: patent US20110010786A1 (published 2011)
